{
  "source": "patent EP4667489A1",
  "biological_target": "human PDL1 expressed on 293T-PDL1 cells (human) (UniProt Q9NZQ7)",
  "sequence (Q9NZQ7 19-290)": "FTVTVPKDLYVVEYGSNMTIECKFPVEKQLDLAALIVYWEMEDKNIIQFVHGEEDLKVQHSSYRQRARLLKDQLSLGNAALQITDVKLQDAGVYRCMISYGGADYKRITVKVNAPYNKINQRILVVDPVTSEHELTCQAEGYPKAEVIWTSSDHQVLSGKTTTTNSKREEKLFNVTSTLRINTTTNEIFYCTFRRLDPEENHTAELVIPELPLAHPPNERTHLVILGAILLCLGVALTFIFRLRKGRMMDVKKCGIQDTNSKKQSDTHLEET",
  "assay": "flow cytometry on 293T-PDL1 cells",
  "data": [
    {"substance": "IgG1 irrelevant antibody", "values": [
      {"measurement": "MFI.Max", "value": 44.1}
    ]}
  ]
}
